# Results taken from US20230106083A1, “SILICON-FLUORIDE HETEROAROMATIC SYSTEMS FOR APPLICATIONS IN POSITRON EMISSION TOMOGRAPHY (PET) MOLECULAR IMAGING” (The Regents of the University of California, priority 2019, published 2023).
# Where two headings read alike, the source gives them in different places.
# Experiments:
# [1] = Stability screen of HetSiFA [^18F]-12 in acetonitrile (RCC by radio-TLC over time); format: physicochemical; settings: room temperature, 1.8 mg (9.4 μmol) Et4NHCO3 used for elution
# Protocol: Isotopic exchange reactions were conducted in 1 mL Eppendorf tube containing hetroarylfluorosilanes 1 in dry acetonitrile (3 mM stock solution, 50 μL). […] An aliquot of the crude reaction mixture was spotted on a silica gel coated TLC plate, developed in a glass chamber using [^18F]fluoride Het Si tBu tBu F Het Si tBu tBu ^18F Et4NHCO3 CH3CN, 23° C. 1 [^18F]-1 S15 acetonitrile (100%) or acetonitrile:water (95:5) as the eluent and analyzed by radio-TLC using a miniGITA*TLC scanner. The radiochemical conversion (RCC) was calculated by dividing the integrated area of the ^18F-fluorinated product peak by the total integrated area of all peaks on the TLC and multiplying by 100 to convert to percentage units. Isotopic exchange and purity was confirmed by analytical HPLC by co-injecting with the 19F-reference standard (UV absorbance at 254 nm). An aliquot of the crude reaction mixture (10 μL) was added to the 19F-reference standard (1 mg/mL) in acetonitrile (10 μL) and the sample was injected into the analytical HPLC.
# [^18F]TEAF was obtained by eluting fluoride ion with high base or low base, following the protocol described above.
# [2] = MicroPET/CT biodistribution of [^18F]-17 in normal mice (ROI quantification); format: in vivo, C57BL6 mice; settings: for tissue uptake at 1 h / tissue uptake at 2 h: C57BL/6, mouse; for tissue uptake at 2 h: 2 h post-injection
# Protocol: Micropositron emission tomography-computed tomography (microPET/CT) imaging studies were performed in normal mice to investigate the in vivo stability of the silicon-fluorine bond in the Heteroaromatic silicon fluoride acceptor peptide conjugate, [^18F]-17. Reformulated [^18F]-17 (2.2 MBq) was injected via the tail vein into C57BL/6 mice (n=3), and microPET/CT scans were acquired. […] Alternatively, the GI activity may also be a result of this particular peptide, for which the full cholecystokinin construct plays important roles in stimulating digestion within the GI system.
# Animal studies were approved by the UCLA Animal Research Committee and carried out according to the guidelines of the Department of Laboratory Animal Medicine at UCLA. Female C57BL6 mice were injected intravenously via tail vein with approximately 2.2 MBq (60 μCi) of [^18F]-17. Animals were kept warm on heating pads throughout the imaging procedures. At 1 and 2 h after tracer injection, mice were anesthetized with 2% isoflurane in oxygen and placed in dedicated Genisys8 imaging chambers for PET/CT imaging on the Genisys8 PET/CT (Sofie Biosciences). PET scans were acquired for 10 min with an energy window of 150-650 keV reconstructed using ML-EM, followed by CT acquisition. All PET images were corrected for CTbased photon attenuation, detector normalization and radioisotope decay (scatter correction was not applied) and converted to units of percent injected dose per gram (% ID/g). Images were analyzed by drawing regions-of-interest (ROI) in select tissues using AMIDE v1.0.5. See e.g. Loening et al., Mol. Imaging 2003, 3, 131.
compound,measurement,setting,value
"CC(C)(C)[Si](F)(c1cc2cccc(C(=O)O)c2s1)C(C)(C)C [[^18F]-12, 2-(di-tertbutylfluorosilyl) benzo[b]thiophene-7-carboxylic acid]",RCC (stability screen),[1]; 2 min,95%
same,RCC (stability screen),[1]; 5 min,96%
same,RCC (stability screen),[1]; 15 min,97%
same,RCC (stability screen),[1]; 30 min,97%
same,RCC (stability screen),[1]; 60 min,97%
CSCC[C@H](NC(=O)[C@H](Cc1c[nH]c2ccccc12)NC(=O)CN1CCN(CC(=O)O)CCN(CC(=O)O)CCN(CC(=O)O)CC1)C(=O)N[C@@H](CC(=O)NCCOCCOCCOCCNC(=O)c1cccc2cc([Si](F)(C(C)(C)C)C(C)(C)C)sc12)C(=O)N[C@@H](Cc1ccccc1)C(N)=O [[^18F]-17],"Biodistribution, Muscle","[2]; PET quantification, 1 h post-injection, i.v. tail vein, C57BL6 mice",0.36 % ID/g
same,tissue uptake at 1 h,"[2]; female, GI tract, iv, 2.2 MBq, total radioactivity, PET quantification, 1 h post-injection, i.v. tail vein, C57BL6 mice, read-out: Biodistribution, GI",107 ± 24 %ID/g
same,tissue uptake at 2 h,"[2]; female, GI tract, iv, 2.2 MBq, total radioactivity, PET quantification, i.v. tail vein, C57BL6 mice, read-out: Biodistribution, GI",122 ± 48 %ID/g
same,tissue uptake at 1 h,"[2]; female, bladder, iv, 2.2 MBq, total radioactivity, PET quantification, 1 h post-injection, i.v. tail vein, C57BL6 mice, read-out: Biodistribution, Bladder",35 ± 12 %ID/g
same,tissue uptake at 2 h,"[2]; female, bladder, iv, 2.2 MBq, total radioactivity, PET quantification, i.v. tail vein, C57BL6 mice, read-out: Biodistribution, Bladder",30 ± 7 %ID/g
same,tissue uptake at 1 h,"[2]; female, bone (knee), iv, 2.2 MBq, total radioactivity, PET quantification, 1 h post-injection, i.v. tail vein, C57BL6 mice, read-out: Biodistribution, Bone (knee)",8 ± 0.65 %ID/g
same,tissue uptake at 2 h,"[2]; female, bone (knee), iv, 2.2 MBq, total radioactivity, PET quantification, i.v. tail vein, C57BL6 mice, read-out: Biodistribution, Bone (knee)",8.2 ± 0.56 %ID/g
same,tissue uptake at 1 h,"[2]; female, brain, iv, 2.2 MBq, total radioactivity, PET quantification, 1 h post-injection, i.v. tail vein, C57BL6 mice, read-out: Biodistribution, Brain",0.44 ± 0.06 %ID/g
same,tissue uptake at 2 h,"[2]; female, brain, iv, 2.2 MBq, total radioactivity, PET quantification, i.v. tail vein, C57BL6 mice, read-out: Biodistribution, Brain",0.33 ± 0.03 %ID/g
same,tissue uptake at 1 h,"[2]; female, gallbladder, iv, 2.2 MBq, total radioactivity, PET quantification, 1 h post-injection, i.v. tail vein, C57BL6 mice, read-out: Biodistribution, Gallbladder",33 ± 14 %ID/g
same,tissue uptake at 2 h,"[2]; female, gallbladder, iv, 2.2 MBq, total radioactivity, PET quantification, i.v. tail vein, C57BL6 mice, read-out: Biodistribution, Gallbladder",28 ± 9 %ID/g
same,tissue uptake at 1 h,"[2]; female, heart, iv, 2.2 MBq, total radioactivity, PET quantification, 1 h post-injection, i.v. tail vein, C57BL6 mice, read-out: Biodistribution, Heart",2 ± 0.25 %ID/g
same,tissue uptake at 2 h,"[2]; female, heart, iv, 2.2 MBq, total radioactivity, PET quantification, i.v. tail vein, C57BL6 mice, read-out: Biodistribution, Heart",1.2 ± 0.26 %ID/g
same,tissue uptake at 1 h,"[2]; female, kidney, iv, 2.2 MBq, total radioactivity, PET quantification, 1 h post-injection, i.v. tail vein, C57BL6 mice, read-out: Biodistribution, Kidney",2.9 ± 0.62 %ID/g
same,tissue uptake at 2 h,"[2]; female, kidney, iv, 2.2 MBq, total radioactivity, PET quantification, i.v. tail vein, C57BL6 mice, read-out: Biodistribution, Kidney",2.2 ± 0.38 %ID/g
same,tissue uptake at 1 h,"[2]; female, liver, iv, 2.2 MBq, total radioactivity, PET quantification, 1 h post-injection, i.v. tail vein, C57BL6 mice, read-out: Biodistribution, Liver",5 ± 0.07 %ID/g
same,tissue uptake at 2 h,"[2]; female, liver, iv, 2.2 MBq, total radioactivity, PET quantification, i.v. tail vein, C57BL6 mice, read-out: Biodistribution, Liver",2.4 ± 0.47 %ID/g
same,tissue uptake at 1 h,"[2]; female, muscle, iv, 2.2 MBq, total radioactivity, PET quantification, 1 h post-injection, i.v. tail vein, C57BL6 mice, read-out: Biodistribution, Muscle",0.36 ± 0.06 %ID/g
same,tissue uptake at 2 h,"[2]; female, muscle, iv, 2.2 MBq, total radioactivity, PET quantification, i.v. tail vein, C57BL6 mice, read-out: Biodistribution, Muscle",0.27 ± 0.11 %ID/g
same,tissue uptake,"[2]; female, mouse, bone, iv, 2.2 MBq, total radioactivity, FIG. 6, time not given, C57BL/6 mice",8 %ID/g
same,clearance route,"[2]; microPET/CT images, C57BL/6 mice, 2.2 MBq via tail vein","initial clearance of [^18F]-17 via the kidneys, followed by the reabsorption of radiometabolites and the subsequent hepatobiliary clearance"
same,plasma clearance,"[2]; microPET/CT, C57BL/6 mice, 2.2 MBq via tail vein",rapid plasma clearance
